# Assay results taken from patent US20150056205A1, “STEROID SPARING AGENTS AND METHODS OF USING SAME” (BIOGEN IDEC MA INC., priority 2004, published 2015).
# Key:
# [1] = tested on: adult subjects with Crohn's disease (CD); test: maintenance of clinical response and remission in Crohn's Disease, six month regimen (Example 10); format: in vivo, human
# Protocol: This experiment was a double-blind, placebo-controlled study of the efficacy, safety, and tolerability of natalizumab in maintaining clinical response and remission in Crohn's Disease.
# Natalizumab, a humanized monoclonal IgG4 antibody to α4 integrin, was evaluated in a randomized, controlled study to determine the ability of a six month regimen to maintain clinical response/remission achieved in natalizumab-treated subjects in the […] induction of response/remission study.
# Loss of response was defined as a CDAI≧220 and ≧70-point increase from baseline CDAI in the second study or use of rescue intervention. Maintenance of remission was also assessed.
# [2] = tested on: mice, guinea pigs, and monkeys; conditions: in vivo
# Protocol: Single- and multiple-dose toxicity studies have been performed in mice, guinea pigs, and monkeys. All toxicology studies were carried out using natalizumab and included an acute study in guinea pigs, subacute studies in mouse and cynomolgus monkeys, and mutagenicity and tissue cross-reactivity studies.
# α4 integrin = target: T1, α4 integrin (Homo sapiens, UniProt P13612); test: single dose pharmacokinetics and α4 integrin receptor saturation in clinical trials; format: in vivo
# T1 construct: endogenous in cells; host or cells: circulating leukocytes of healthy volunteers and MS/IBD subjects (in vivo)
# Protocol: The initial dose of natalizumab selected for clinical evaluation was based on non-clinical studies in the guinea pig Experimental Allergic Encephalitis (EAE) model. […] A single dose of 3 mg/kg appeared to provide serum concentrations of natalizumab associated with α4 integrin receptor blockade for up to approximately 3 weeks, and 6 mg/kg for about 6 weeks.
# Natalizumab has been evaluated in all clinical trials to date by administration of dose adjusted for bodyweight. […] A single infusion of a higher dose of 6 mg/kg natalizumab produced α4 integrin saturation levels which were slightly higher and more prolonged (approximately 6 weeks).
# [3] = tested on: subjects with moderately to severely active Crohn's disease; test: placebo-controlled one or two infusion study in moderately to severely active Crohn's disease; format: in vivo; conditions: for subjects withdrawn due to adverse events: placebo 2; for subjects reporting a serious adverse event: placebo 9
# Protocol: Another earlier study was a double-blind, placebo-controlled, parallel group, multicenter, efficacy, safety, and tolerability study of either one or two intravenous infusions of placebo, 3 or 6 mg/kg natalizumab in subjects with moderately to severely active Crohn's disease. […] Sixty-eight subjects were randomized to a single infusion of 3 mg/kg, 66 to two infusions of 3 mg/kg at a 4-week interval, 51 to two infusions of 6 mg/kg at a 4-week interval and 63 to receive placebo.
# [4] = Week 6, two infusions of 3 mg/kg
substance,measurement,setting,value
natalizumab,subjects taking steroids in the first study who were withdrawn from steroids,"[1]; 300 mg monthly, placebo 25%",55%
same,subjects who maintained clinical remission,"[1]; at 6 months, 300 mg monthly, placebo 26%",44%
same,subjects continuing to meet the criteria for clinical response,"[1]; at 6 months, ITT population, 300 mg monthly, placebo 29%",61%
same,tolerability,[1]; monthly administration for 6 months,well tolerated
same,rates of serious and non-serious adverse events between treatment groups,[1]; versus placebo,No notable difference
same,clinical or postmortem evidence of toxicity,[2],did not demonstrate clinical or postmortem evidence of significant toxicity
same,"time serum concentrations, receptor saturation and inhibition of cell adhesion are maintained",α4 integrin; 3 mg/kg infusion,3-4 weeks
same,natalizumab serum concentrations maintained,"α4 integrin; 3 mg/kg infusion, healthy volunteers, subjects with MS and IBD",2.5 to 3.0 µg/mL
same,"clearance, dependence on bodyweight","α4 integrin; human, in vivo",largely independent of bodyweight
same,duration of serum concentrations associated with α4 integrin receptor blockade,α4 integrin; single dose of 3 mg/kg,approximately 3 weeks
same,duration of serum concentrations associated with α4 integrin receptor blockade,α4 integrin; single dose of 6 mg/kg,about 6 weeks
same,duration of α4 integrin saturation,α4 integrin; single infusion of 6 mg/kg,approximately 6 weeks
same,remission rate (CDAI<150),[3]; [4],46%
same,response rate (≧70 point drop in CDAI),[3]; [4],73%
same,response rate (≧100 drop in CDAI),[3]; [4],56%
same,remission rates (CDAI<150),"[3]; Weeks 8 and 12, two infusions of 3 mg/kg and two infusions of 6 mg/kg",41-43%
same,C-reactive protein,[3]; in vivo,decreases
same,"quality of life, Inflammatory Bowel Disease Questionnaire",[3]; in vivo,Statistically significant improvements
same,subjects withdrawn due to adverse events,[3]; single 3.0 mg/kg infusion,1
same,subjects reporting a serious adverse event,[3]; single 3.0 mg/kg infusion,8
same,safety and tolerability,[3]; subjects with active CD,safe and well tolerated
same,subjects withdrawn due to adverse events,[3]; two 3 mg/kg infusions,2
same,subjects reporting a serious adverse event,[3]; two 3 mg/kg infusions,8
same,subjects withdrawn due to adverse events,[3]; two 6 mg/kg infusions,3
same,subjects reporting a serious adverse event,[3]; two 6 mg/kg infusions,7
